Assay results taken from PMC2924879.
Like-named read-outs stand apart in the source and are kept apart here.

How the values were obtained:
Assay in all cases: AUC
[1] = biological target: vMIP-II L13F (human herpesvirus-8)
[2] = biological target: vMIP-II L13F (human herpesvirus-8); remark: listed apart in the source
[3] = biological target: vMIP-II L13F (human herpesvirus-8); remark: listed apart in the source

Substance: vMIP-II L13F (natural protein)
- Kd [1]: 41 µM
- stoichiometry N [1]: 2
- Kd [2]: 129 µM
- Kd [3]: 0.74 µM
